Reference: patent publication US8715959B2, “Substitution mutant receptors and their use in a nuclear receptor-based inducible gene expression system” (priority 2001, dated 2014)

What was measured:
CfEcR-A/BCDEF = test: GAL4/full length CfEcR-A/BCDEF or A110P mutant, EcRE-driven luciferase reporter in NIH3T3 cells (FIG. 2); assay type: cell-based, Choristoneura fumiferana; settings: 40 hours
Text: To eliminate the possibility that the loss of steroid activity may be due to the truncated CfEcR-DEF receptor or an artifact of the GAL4 fusion protein, Applicants introduced the A110P mutation into the full length (FL) CfEcR (CfEcR-A/BCDEF), fused it to the GAL4 DNA binding domain as described in Example 1.4, and comparatively assayed it in NIH3T3 cells in 24-well plates as described in Example 2 above with full length wild type CfEcR (Example 1.3) in combination with VP16/LmUSP-EF and pFREcRE Luc that comprised the luciferase reporter gene operatively linked to six copies of the ecdysone response element (6×EcRE) and a synthetic TATAA. The transfected cells were grown in the presence of 0.25 or 10 μM PonA or GS™-E and the reporter activity was measured at 40 hours after adding ligand. The cells were harvested and the extracts were assayed for luciferase activity. The numbers on top of the bars indicate fold increase over DMSO levels.

CfEcR-DEF = test: GAL4/mutant CfEcR-DEF + VP16/LmUSP-EF GAL4-driven luciferase reporter transactivation in NIH3T3 cells; assay type: cell-based, Choristoneura fumiferana
CfEcR-CDEF = settings: L57 cells, 40 hours, FIG. 3
Text: To determine whether the A110P mutant can respond to 20E, Applicants tested this A110P mutant-based gene expression system in an EcRE-driven reporter assay in insect L57 cells (a Drosophila melanogaster cell line that lacks EcR isoform B, the Drosophila melanogaster EcR isoform homolog of CfEcR isoform B from which the A110P mutant is derived, however L57 cells still contain EcR isoform A). The mutation was introduced into the VP16/CfEcR-CDEF fusion protein and operably linked to an baculovirus IE1 promoter and L57 cells were transfected with IE1VP16CfEcRCDEF (Example 1.5) or its A110P mutant version DNA (Example 1.6) along with a pMK43.2 β-galactosidase reporter gene under the control of 6× ecdysone response elements (“6×EcRE”; the pMK43.2 construct was obtained from Michael Koelle at Stanford University) in 24-well plates. Reporter activity for A110P mutant-based gene expression system transactivation was measured after 40 hours of treatment of the transfected cells with 0, 1, 10, 100, or 1000 nM 20E or GS™-E. The cells were harvested and the extracts were assayed for β-galactosidase (β-gal) and luciferase activity. β-Galactosidase was measured using Galacto-Star™ assay kit from TROPIX following the manufacturer's instructions.

CfEcR = test: In vitro 3H-PonA ligand binding of CfEcR wild-type and A110 mutants (FIG. 5); parameters: species or system Choristoneura fumiferana; settings: in vitro translated receptor with GST-CfUSP-A/BCDEF

B1: A110P: CfEcR LBD substitution mutant, Alanine (A) to Proline (P); also made in CfEcR-A/BCDEF and CfEcR-CDEF (protein, listed as Choristoneura fumiferana)
chain: LTANQQFLIARLIWYQDGYEQPSDEDLKRITQTWQQADDENEESDTPFRQITEMTILTVQLIVEFAKGLPGFAKISQPDQITLLKACSSEVMMLRVARRYDAASDSVLFPNNQAYTRDNYRKAGMAYVIEDLLHFCRCMYSMALDNIHYALLTAVVIFSDRPGLEQPQLVEEIQRYYLNTLRIYILNQLSGSARSSVIYGKILSILSELRTLGMQNSNMCISLKLKNRKLPPFLEEIWDV
- non-steroid activity of full length receptor versus full length WT CfEcR (CfEcR-A/BCDEF; 0.25 or 10 μM GS™-E): no significant difference
- PonA activity of full length receptor (CfEcR-A/BCDEF; 0.25 or 10 μM PonA): completely lost
- Fold increase over WT, 2.5 μM GS™-E (CfEcR-DEF; 2.5 μM GS™-E non-steroidal ligand, NIH3T3 cells, relative to Gal4/wild-type CfEcR-DEF switch activity): 0.8 fold
- Fold increase over WT, 2.5 μM PonA (CfEcR-DEF; 2.5 μM PonA steroidal ligand, NIH3T3 cells, relative to Gal4/wild-type CfEcR-DEF switch activity): 0.005 fold
- non-steroid activity (summary of Table 10) (CfEcR-DEF; GS™-E, CfEcR-DEF point mutants): not significantly affected
- steroid binding activity (summary of Table 10) (CfEcR-DEF; PonA, CfEcR-DEF point mutants): essentially eliminated
- reporter gene activity in the presence of 20E (CfEcR-CDEF; 1-1000 nM 20E): slightly increased reporter gene activity
- reporter gene expression in the presence of GS™-E (CfEcR-CDEF; 1-1000 nM GS™-E): transactivated reporter gene expression
- PonA binding, of wild-type receptor binding (CfEcR): undetectable
